The results in this text go back to patent publication US20250206834A1 (published 2025).

Assay [1] concerns the target T1, human 4-1BB (human, UniProt Q07011 24-255). The assay is described as follows: FACS cell binding.
For assay [2], the target named is T2, human CEACAM5 on cells (human, UniProt P06731 35-685).
T2 chain: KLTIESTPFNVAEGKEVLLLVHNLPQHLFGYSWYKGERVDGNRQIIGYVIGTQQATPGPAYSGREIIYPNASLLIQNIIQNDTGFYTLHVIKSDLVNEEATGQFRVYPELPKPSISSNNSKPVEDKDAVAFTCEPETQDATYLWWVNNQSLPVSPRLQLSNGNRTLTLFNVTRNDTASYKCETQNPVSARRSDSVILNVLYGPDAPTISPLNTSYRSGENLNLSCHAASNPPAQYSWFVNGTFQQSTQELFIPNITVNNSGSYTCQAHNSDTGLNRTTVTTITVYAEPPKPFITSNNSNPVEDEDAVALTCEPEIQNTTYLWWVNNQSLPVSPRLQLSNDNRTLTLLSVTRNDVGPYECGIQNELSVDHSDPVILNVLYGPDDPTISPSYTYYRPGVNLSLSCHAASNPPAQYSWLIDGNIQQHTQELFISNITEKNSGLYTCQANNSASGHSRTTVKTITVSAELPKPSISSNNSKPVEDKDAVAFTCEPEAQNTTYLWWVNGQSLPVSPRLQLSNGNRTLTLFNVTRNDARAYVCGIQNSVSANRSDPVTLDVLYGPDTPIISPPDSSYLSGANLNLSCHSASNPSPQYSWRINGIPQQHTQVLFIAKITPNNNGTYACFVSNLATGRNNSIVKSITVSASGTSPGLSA
In words: FACS cell binding; MKN-45 cells.

For assay [3], the target named is T1, human 4-1BB. In words: FACS cell binding. This is another data set of the same source.
In assay [4] the target is T2, human CEACAM5 on cells. In words: FACS cell binding; MKN-45 cells.
Assay [5] addresses T1, human 4-1BB. The assay is described as follows: FACS cell binding; plot key prints IMMU130-263-1-3.

Changes are numbered by the printed parent chain. Read-outs that look alike come from different tables or passages of the source.

T1 sequence (Q07011 24-255): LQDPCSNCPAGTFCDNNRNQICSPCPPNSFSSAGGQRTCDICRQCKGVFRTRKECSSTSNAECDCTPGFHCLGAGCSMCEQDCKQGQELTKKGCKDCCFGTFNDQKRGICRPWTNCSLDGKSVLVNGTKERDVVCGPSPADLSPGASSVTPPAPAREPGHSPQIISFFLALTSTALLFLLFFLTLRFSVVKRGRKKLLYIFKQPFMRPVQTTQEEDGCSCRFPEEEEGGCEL

B1: VV02-1LP-263 huNb_1_3 (Fc fusion)
VHH: EVQLLESGGGLVQPGGSLRLSCAASGFTFSSSAMSWARQTPGKGFEWVSGIYSGGSTYYTESVKDRFTISRDNSKNTVYLQMNSLKPEDTAVYYCATWGTLRFGVWAEYDHWGQGTQVTVSS
B1 registered an EC50 with human 4-1BB [1] of 0.53 nM.

B2: IMMU130-263-1-3_1 (bispecific antibody, V domains shown)
VH: EVQLVESGGGVVQPGRSLRLSCSASGFDFTTYWMSWVRQAPGKGLEWIGEIHPDSSTINYAPSLKDRFTISRDNAKNTLFLQMDSLRPEDTGVYFCASLYFGFPWFAYWGQGTPVTVSS
VL: DIQLTQSPSSLSASVGDRVTITCKASQDVGTSVAWYQQKPGKAPKLLIYWTSTRHTGVPSRFSGSGSGTDFTFTISSLQPEDIATYYCQQYSLYRSFGQGTKVEIK
VHH: B1 VHH with L5V, T40A
B2 displayed an EC50 with human CEACAM5 on cells [2] of 7.34 nM.

B3: VV02-1SP (1)-73 huNb_1_3 (Fc fusion)
VHH: EVDLVESGGGLVQPGGSLRLSCAVSGFTFSSSAMSWARQAPGKEFEWVSSIYSSGKTYYVESVKGRFTISRDNAKNTVYLQMSSLRPEDTAVYYCATWKTLRVGVWDESDYWGQGTLVTVSS
With B3, the EC50 in the assay with human 4-1BB [3] is 0.37 nM.

B4: IMMU130-263-1-3 (bispecific antibody)
heavy (part 1 of 2): B2 VH
heavy (part 2 of 2): GGGGSGGGGSGGGGSGGGGSEVQLLESGGGLVQPGGSLRLSCAASGFTFSSSAMSWARQTPGKGFEWVSGIYSGGSTYYTESVKDRFTISRDNSKNTVYLQMNSLKPEDTAVYYCATWGTLRFGVWAEYDHWGQGTQVTVSS
light: B2 VL
With B4, the concentration giving a half-maximal response (EC50) with human CEACAM5 on cells [2] was found to be 8.47 nM; in the assay with human CEACAM5 on cells [4] it was 5.38 nM; in the assay with human 4-1BB [5] it was 1.23 nM; with human 4-1BB [3] it was 0.58 nM.

B5: optimized bispecific antibody with 263 huNb-1-3_2 (bispecific antibody)
heavy (part 1 of 2): B2 VH
heavy (part 2 of 2): B4 heavy (part 2 of 2) with L25V, T60A, S94A, Q137L
light: B2 VL
With B5, the EC50 in the assay with human CEACAM5 on cells [2] is 7.75 nM; with human 4-1BB [1], 1.2 nM.

B6: Labetuzumab (antibody, V domains shown)
VH: B2 VH
VL: B2 VL
For B6, the EC50 came to 5.31 nM in the assay with human CEACAM5 on cells [2] and 3.48 nM with human CEACAM5 on cells [4].
